From US20140087995A1 (published 2014)
Numbered stars: 1 amine (or outer) side, 2 acyl side, 3 side chain; on linkers, the order of the positions; unused ones are H or OH. Bridge positions count the residues as written; N and C are the ends. * marks the point of attachment. C20 diacid = O=C(O)CCCCCCCCCCCCCCCCCCC(=O)*; γGlu = O=C(O)[C@H](CCC(=O)[*:2])N[*:1]

B1: N^-1-[(4S)-4-carboxy-4-(19-carboxynonadecanoylamino)butanoyl]-Gly[Arg1,His14,Arg17,Pro21,Pro27,His34]-h-amylin (peptide)
peptide: {C20 diacid-γGlu}-GRCNTATCATQRLAHFLRHSSPNFGAIPSSTNVGHNTY-NH2
modifications: disulfide 3-8
SMILES: CC[C@H](C)[C@H](NC(=O)[C@H](C)NC(=O)CNC(=O)[C@H](Cc1ccccc1)NC(=O)[C@H](CC(N)=O)NC(=O)[C@@H]1CCCN1C(=O)[C@H](CO)NC(=O)[C@H](CO)NC(=O)[C@H](Cc1c[nH]cn1)NC(=O)[C@H](CCCNC(=N)N)NC(=O)[C@H](CC(C)C)NC(=O)[C@H](Cc1ccccc1)NC(=O)[C@H](Cc1c[nH]cn1)NC(=O)[C@H](C)NC(=O)[C@H](CC(C)C)NC(=O)[C@H](CCCNC(=N)N)NC(=O)[C@H](CCC(N)=O)NC(=O)[C@@H](NC(=O)[C@H](C)NC(=O)[C@@H]1CSSC[C@H](NC(=O)[C@H](CCCNC(=N)N)NC(=O)CNC(=O)CC[C@H](NC(=O)CCCCCCCCCCCCCCCCCCC(=O)O)C(=O)O)C(=O)N[C@@H](CC(N)=O)C(=O)N[C@@H]([C@@H](C)O)C(=O)N[C@@H](C)C(=O)N[C@@H]([C@@H](C)O)C(=O)N1)[C@@H](C)O)C(=O)N1CCC[C@H]1C(=O)N[C@@H](CO)C(=O)N[C@@H](CO)C(=O)N[C@H](C(=O)N[C@@H](CC(N)=O)C(=O)N[C@H](C(=O)NCC(=O)N[C@@H](Cc1c[nH]cn1)C(=O)N[C@@H](CC(N)=O)C(=O)N[C@H](C(=O)N[C@@H](Cc1ccc(O)cc1)C(N)=O)[C@@H](C)O)C(C)C)[C@@H](C)O
notes: Synthetic acylated analogue of human amylin, extended by Gly at position -1; also called compound 100
B2: N^-1-[(4S)-4-carboxy-4-(19-carboxynonadecanoylamino)butanoyl]-Gly[Arg1,Ala14,Arg17,Pro21,Pro27,His34]-h-amylin (peptide)
peptide: {C20 diacid-γGlu}-GRCNTATCATQRLAAFLRHSSPNFGAIPSSTNVGHNTY-NH2
modifications: disulfide 3-8
SMILES: CC[C@H](C)[C@H](NC(=O)[C@H](C)NC(=O)CNC(=O)[C@H](Cc1ccccc1)NC(=O)[C@H](CC(N)=O)NC(=O)[C@@H]1CCCN1C(=O)[C@H](CO)NC(=O)[C@H](CO)NC(=O)[C@H](Cc1c[nH]cn1)NC(=O)[C@H](CCCNC(=N)N)NC(=O)[C@H](CC(C)C)NC(=O)[C@H](Cc1ccccc1)NC(=O)[C@H](C)NC(=O)[C@H](C)NC(=O)[C@H](CC(C)C)NC(=O)[C@H](CCCNC(=N)N)NC(=O)[C@H](CCC(N)=O)NC(=O)[C@@H](NC(=O)[C@H](C)NC(=O)[C@@H]1CSSC[C@H](NC(=O)[C@H](CCCNC(=N)N)NC(=O)CNC(=O)CC[C@H](NC(=O)CCCCCCCCCCCCCCCCCCC(=O)O)C(=O)O)C(=O)N[C@@H](CC(N)=O)C(=O)N[C@@H]([C@@H](C)O)C(=O)N[C@@H](C)C(=O)N[C@@H]([C@@H](C)O)C(=O)N1)[C@@H](C)O)C(=O)N1CCC[C@H]1C(=O)N[C@@H](CO)C(=O)N[C@@H](CO)C(=O)N[C@H](C(=O)N[C@@H](CC(N)=O)C(=O)N[C@H](C(=O)NCC(=O)N[C@@H](Cc1c[nH]cn1)C(=O)N[C@@H](CC(N)=O)C(=O)N[C@H](C(=O)N[C@@H](Cc1ccc(O)cc1)C(N)=O)[C@@H](C)O)C(C)C)[C@@H](C)O
notes: Synthetic acylated analogue of human amylin, extended by Gly at position -1
B3: N^-1-[(4S)-4-carboxy-4-(19-carboxynonadecanoylamino)butanoyl]-Gly[Arg1,Ala14,Arg17,Pro21,Pro27,Pro34]-h-amylin (peptide)
peptide: {C20 diacid-γGlu}-GRCNTATCATQRLAAFLRHSSPNFGAIPSSTNVGPNTY-NH2
modifications: disulfide 3-8
notes: as for B2
B4: N^-1-[(4S)-4-carboxy-4-(19-carboxynonadecanoylamino)butanoyl]-Gly[Arg1,His14,Arg17,Pro21,Pro27,Pro34]-h-amylin (peptide)
peptide: {C20 diacid-γGlu}-GRCNTATCATQRLAHFLRHSSPNFGAIPSSTNVGPNTY-NH2
modifications: disulfide 3-8
SMILES: CC[C@H](C)[C@H](NC(=O)[C@H](C)NC(=O)CNC(=O)[C@H](Cc1ccccc1)NC(=O)[C@H](CC(N)=O)NC(=O)[C@@H]1CCCN1C(=O)[C@H](CO)NC(=O)[C@H](CO)NC(=O)[C@H](Cc1c[nH]cn1)NC(=O)[C@H](CCCNC(=N)N)NC(=O)[C@H](CC(C)C)NC(=O)[C@H](Cc1ccccc1)NC(=O)[C@H](Cc1c[nH]cn1)NC(=O)[C@H](C)NC(=O)[C@H](CC(C)C)NC(=O)[C@H](CCCNC(=N)N)NC(=O)[C@H](CCC(N)=O)NC(=O)[C@@H](NC(=O)[C@H](C)NC(=O)[C@@H]1CSSC[C@H](NC(=O)[C@H](CCCNC(=N)N)NC(=O)CNC(=O)CC[C@H](NC(=O)CCCCCCCCCCCCCCCCCCC(=O)O)C(=O)O)C(=O)N[C@@H](CC(N)=O)C(=O)N[C@@H]([C@@H](C)O)C(=O)N[C@@H](C)C(=O)N[C@@H]([C@@H](C)O)C(=O)N1)[C@@H](C)O)C(=O)N1CCC[C@H]1C(=O)N[C@@H](CO)C(=O)N[C@@H](CO)C(=O)N[C@H](C(=O)N[C@@H](CC(N)=O)C(=O)N[C@H](C(=O)NCC(=O)N1CCC[C@H]1C(=O)N[C@@H](CC(N)=O)C(=O)N[C@H](C(=O)N[C@@H](Cc1ccc(O)cc1)C(N)=O)[C@@H](C)O)C(C)C)[C@@H](C)O
notes: as for B2
B5: N{-1}-[(4S)-4-carboxy-4-(19-carboxynonadecanoylamino)butanoyl]-Gly[Arg1,His14,Arg17,Pro21,Pro27]-h-amylin (peptide)
peptide: {C20 diacid-γGlu}-GRCNTATCATQRLAHFLRHSSPNFGAIPSSTNVGSNTY-NH2
modifications: disulfide 3-8
SMILES: CC[C@H](C)[C@H](NC(=O)[C@H](C)NC(=O)CNC(=O)[C@H](Cc1ccccc1)NC(=O)[C@H](CC(N)=O)NC(=O)[C@@H]1CCCN1C(=O)[C@H](CO)NC(=O)[C@H](CO)NC(=O)[C@H](Cc1c[nH]cn1)NC(=O)[C@H](CCCNC(=N)N)NC(=O)[C@H](CC(C)C)NC(=O)[C@H](Cc1ccccc1)NC(=O)[C@H](Cc1c[nH]cn1)NC(=O)[C@H](C)NC(=O)[C@H](CC(C)C)NC(=O)[C@H](CCCNC(=N)N)NC(=O)[C@H](CCC(N)=O)NC(=O)[C@@H](NC(=O)[C@H](C)NC(=O)[C@@H]1CSSC[C@H](NC(=O)[C@H](CCCNC(=N)N)NC(=O)CNC(=O)CC[C@H](NC(=O)CCCCCCCCCCCCCCCCCCC(=O)O)C(=O)O)C(=O)N[C@@H](CC(N)=O)C(=O)N[C@@H]([C@@H](C)O)C(=O)N[C@@H](C)C(=O)N[C@@H]([C@@H](C)O)C(=O)N1)[C@@H](C)O)C(=O)N1CCC[C@H]1C(=O)N[C@@H](CO)C(=O)N[C@@H](CO)C(=O)N[C@H](C(=O)N[C@@H](CC(N)=O)C(=O)N[C@H](C(=O)NCC(=O)N[C@@H](CO)C(=O)N[C@@H](CC(N)=O)C(=O)N[C@H](C(=O)N[C@@H](Cc1ccc(O)cc1)C(N)=O)[C@@H](C)O)C(C)C)[C@@H](C)O
notes: Synthetic acylated analogue of human amylin, extended by Gly at position -1; also called compound 99

Each binder was assayed against T1, rat calcitonin receptor (rat, UniProt P32214 25-516) (assay: SPA competition with 125I-calcitonin on membranes of BHK tk'ts 13 cells with rat calcitonin receptor (Assay VIII)).
T1 construct: whole, on cells; Membranes of transiently transfected BHK tk'ts 13 cells; also called rCTR; rat calcitonin (a) receptor
T1 sequence (looked up): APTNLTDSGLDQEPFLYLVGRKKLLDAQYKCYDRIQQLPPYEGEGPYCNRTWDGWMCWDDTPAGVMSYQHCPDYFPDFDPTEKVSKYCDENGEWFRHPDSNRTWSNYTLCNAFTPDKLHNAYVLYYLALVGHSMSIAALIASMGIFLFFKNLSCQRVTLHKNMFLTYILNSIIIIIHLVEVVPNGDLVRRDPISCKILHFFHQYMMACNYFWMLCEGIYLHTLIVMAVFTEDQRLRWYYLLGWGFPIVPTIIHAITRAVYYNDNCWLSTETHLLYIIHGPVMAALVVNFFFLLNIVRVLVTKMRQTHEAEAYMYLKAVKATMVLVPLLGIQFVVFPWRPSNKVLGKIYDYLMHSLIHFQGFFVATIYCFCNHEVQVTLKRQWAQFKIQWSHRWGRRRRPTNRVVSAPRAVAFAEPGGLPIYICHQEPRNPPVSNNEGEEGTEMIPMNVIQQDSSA

Binder	IC50
B1	311 nM
B2	492 nM
B3	56.3 nM
B4	65.9 nM
B5	216 nM

These binders were tested against T2, rat amylin receptor (rat calcitonin receptor + rat RAMP 3) (rat, UniProt P32214 25-516; Q9JJ73 23-147) (assay: SPA competition with 125I-rat amylin on membranes of BHK tk'ts 13 cells with rat calcitonin receptor + rat RAMP3 (Assay VI)).
T2 construct: whole, on cells; Membranes of transiently transfected BHK tk'ts 13 cells; also called rAmylin-R; rat amylin 3(a) receptor
T2 sequence (looked up) 1: T1 sequence (looked up)
T2 sequence (looked up) 2: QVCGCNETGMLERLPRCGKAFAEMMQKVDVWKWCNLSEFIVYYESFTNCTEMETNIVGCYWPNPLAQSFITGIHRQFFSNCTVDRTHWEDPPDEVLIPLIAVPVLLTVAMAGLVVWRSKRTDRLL

Binder	IC50
B1	11.2 nM
B2	8.07 nM
B3	0.436 nM
B4	0.674 nM
B5	2.7 nM

These binders were tested against T1, rat calcitonin receptor (assay: ratio of IC50 on rat calcitonin receptor to IC50 on rat amylin receptor (reference m40)).

Binder	Ratio rCT/rAmylin binding
B1	27.7
B2	60.9
B3	129
B4	97.7
B5	79.8

Each binder was assayed against T3, human calcitonin receptor (human, UniProt P30988 25-474) (assay: ratio of IC50 on human calcitonin receptor to IC50 on human amylin receptor (reference m42), SPA competition).
T3 construct: whole, on cells; Membranes of stably transfected cells; also called hCTR; hCT
T3 sequence (looked up): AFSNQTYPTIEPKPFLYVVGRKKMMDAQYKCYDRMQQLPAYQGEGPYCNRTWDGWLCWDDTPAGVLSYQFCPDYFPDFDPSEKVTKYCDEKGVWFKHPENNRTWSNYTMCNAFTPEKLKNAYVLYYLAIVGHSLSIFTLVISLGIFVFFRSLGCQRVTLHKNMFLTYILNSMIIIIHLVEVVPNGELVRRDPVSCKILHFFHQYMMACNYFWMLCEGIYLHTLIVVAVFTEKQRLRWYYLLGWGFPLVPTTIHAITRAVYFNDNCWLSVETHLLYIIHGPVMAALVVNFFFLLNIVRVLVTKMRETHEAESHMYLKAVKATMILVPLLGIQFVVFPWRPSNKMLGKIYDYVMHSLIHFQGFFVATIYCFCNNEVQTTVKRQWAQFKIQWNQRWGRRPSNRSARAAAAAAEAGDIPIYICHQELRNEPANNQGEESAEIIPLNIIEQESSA
Procedure, shortened: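 Competition binding by SPA uses membrane preparations (35 ng/μL final) in pH 7.4 Hepes buffer with 1 mM CaCl2 and 5 mM MgCl₂. Incubation lasts 120 min at 25° C, and IC₅₀ comes from one-site fitting.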

Binder	Ratio hCT/hAmylin binding
B1	65.3
B2	68.6
B3	26.5
B4	36.2
B5	100
